Measured values taken from the Immune Epitope Database (IEDB).

Columns and labels:
HLA-B*08:01 = assay: IEDB peptide-MHC binding, purified MHC/competitive/fluorescence; ≥ and ≤ were set here for values at or beyond the usual limits of such assays; conditions: source organism: Homo sapiens
HLA-B*07:02 = assay: as above; conditions: source organism: Homo sapiens
HLA-A*29:02 [1] = assay: as above; conditions: source organism: Homo sapiens
HLA-B*53:01 = assay: as above; conditions: source organism: Homo sapiens
HLA-A*24:02 = assay: as above; conditions: source organism: Homo sapiens
HLA-A*68:02 = assay: as above; conditions: source organism: Homo sapiens
HLA-A*11:01 = assay: as above; conditions: source organism: Homo sapiens
HLA-B*58:01 = assay: as above; conditions: source organism: Homo sapiens
HLA-A*01:01 = assay: as above; conditions: source organism: Homo sapiens
HLA-B*18:01 [2] = assay: as above; conditions: source organism: Homo sapiens
HLA-B*14:02 = assay: as above; conditions: source organism: Homo sapiens
HLA-B*40:02 = assay: as above; conditions: source organism: Homo sapiens
HLA-B*37:01 = assay: as above; conditions: source organism: Homo sapiens
HLA-B*35:01 = assay: as above; conditions: source organism: Homo sapiens
HLA-A*03:01 [3] = assay: as above; conditions: source organism: Homo sapiens
HLA-B*51:01 [4] = assay: as above; conditions: source organism: Homo sapiens
HLA-A*02:01 [5] = assay: as above; conditions: source organism: Homo sapiens
HLA-A*25:01 = assay: as above; conditions: source organism: Homo sapiens
HLA-B*44:03 = assay: as above; conditions: source organism: Homo sapiens
HLA-A*31:01 = assay: as above; conditions: source organism: Homo sapiens
HLA-A*02:16 = assay: IEDB peptide-MHC binding, purified MHC/direct/fluorescence; filed as Kd, often an IC50 or EC50 that approximates it; ≥ and ≤ were set here for values at or beyond the usual limits of such assays; conditions: source organism: Escherichia coli O157:H7 str. EC869
HLA-B*57:01 = assay: as above; conditions: source organism: Escherichia coli O157:H7 str. EC869
HLA-A*29:02 [6] = assay: as above; conditions: source organism: Escherichia coli O157:H7 str. EC869
HLA-A*02:19 = assay: as above; conditions: source organism: Escherichia coli O157:H7 str. EC869
HLA-A*02:12 = assay: as above; conditions: source organism: Escherichia coli O157:H7 str. EC869
HLA-A*02:06 = assay: as above; conditions: source organism: Escherichia coli O157:H7 str. EC869
HLA-B*18:01 [7] = assay: as above; conditions: source organism: Escherichia coli O157:H7 str. EC869
HLA-A*24:03 = assay: as above; conditions: source organism: Escherichia coli O157:H7 str. EC869
HLA-B*15:17 = assay: as above; conditions: source organism: Escherichia coli O157:H7 str. EC869
HLA-A*26:01 = assay: as above; conditions: source organism: Escherichia coli O157:H7 str. EC869
HLA-A*03:01 [8] = assay: as above; conditions: source organism: Escherichia coli O157:H7 str. EC869
HLA-B*51:01 [9] = assay: as above; conditions: source organism: Escherichia coli O157:H7 str. EC869
HLA-A*02:01 [10] = assay: as above; conditions: source organism: Escherichia coli O157:H7 str. EC869
HLA-B*46:01 = assay: as above; conditions: source organism: Escherichia coli O157:H7 str. EC869
HLA-B*39:01 = assay: as above; conditions: source organism: Escherichia coli O157:H7 str. EC869
HLA-A*02:11 = assay: as above; conditions: source organism: Escherichia coli O157:H7 str. EC869
HLA-A*02:03 = assay: as above; conditions: source organism: Escherichia coli O157:H7 str. EC869
HLA-B*27:03 = assay: as above; conditions: source organism: Escherichia coli O157:H7 str. EC869

Row | Sequence | IC50 (HLA-B*08:01) | IC50 (HLA-B*07:02) | IC50 (HLA-A*29:02 [1]) | IC50 (HLA-B*53:01) | IC50 (HLA-A*24:02) | IC50 (HLA-A*68:02) | IC50 (HLA-A*11:01) | IC50 (HLA-B*58:01) | IC50 (HLA-A*01:01) | IC50 (HLA-B*18:01 [2]) | IC50 (HLA-B*14:02) | IC50 (HLA-B*40:02) | IC50 (HLA-B*37:01) | IC50 (HLA-B*35:01) | IC50 (HLA-A*03:01 [3]) | IC50 (HLA-B*51:01 [4]) | IC50 (HLA-A*02:01 [5]) | IC50 (HLA-A*25:01) | IC50 (HLA-B*44:03) | IC50 (HLA-A*31:01) | other results
1 | KVADVDLAVPV | ≥ 20 µM | ≥ 20 µM | ≥ 20 µM | ≥ 20 µM | ≥ 20 µM | 0.0243 µM | ≥ 20 µM | ≥ 20 µM | ≥ 20 µM | ≥ 20 µM | ≥ 20 µM | 0.745 µM | 0.907 µM | ≥ 20 µM | ≥ 20 µM | ≥ 20 µM | 0.0193 µM | ≥ 20 µM | ≥ 20 µM | ≥ 20 µM | 
2 | SQFNHWFGE |  |  |  |  |  |  |  |  |  |  |  |  |  |  |  |  |  |  |  |  | Kd (HLA-A*02:16): ≥ 20 µM; Kd (HLA-B*57:01): ≥ 20 µM; Kd (HLA-A*29:02 [6]): ≥ 20 µM; Kd (HLA-A*02:19): ≥ 20 µM; Kd (HLA-A*02:12): ≥ 20 µM; Kd (HLA-A*02:06): 0.086 µM; Kd (HLA-B*18:01 [7]): ≥ 20 µM; Kd (HLA-A*24:03): ≥ 20 µM; Kd (HLA-B*15:17): ≥ 20 µM; Kd (HLA-A*26:01): ≥ 20 µM; Kd (HLA-A*03:01 [8]): ≥ 20 µM; Kd (HLA-B*51:01 [9]): ≥ 20 µM; Kd (HLA-A*02:01 [10]): ≥ 20 µM; Kd (HLA-B*46:01): ≥ 20 µM; Kd (HLA-B*39:01): ≥ 20 µM; Kd (HLA-A*02:11): ≥ 20 µM; Kd (HLA-A*02:03): ≥ 20 µM; Kd (HLA-B*27:03): ≥ 20 µM
3 | GSSDFQVHFLK | ≥ 20 µM | ≥ 20 µM | 1.46 µM | ≥ 20 µM | ≥ 20 µM | ≥ 20 µM | 0.0665 µM | ≥ 20 µM | ≥ 20 µM | ≥ 20 µM | ≥ 20 µM | 4.59 µM | ≥ 20 µM | ≥ 20 µM | 1.02 µM | ≥ 20 µM | ≥ 20 µM | ≥ 20 µM | ≥ 20 µM | 1.05 µM | 
